# According to IntAct's records for PubMed 16357825:
# B1: Retinal rod rhodopsin-sensitive cGMP 3',5'-cyclic phosphodiesterase subunit gamma (Homo sapiens), P18545 (parent)
# chain: MNLEPPKAEFRSATRVAGGPVTPRKGPPKFKQRQTRQFKSKPPKKGVQGFGDDIPGMEGLGTDITVICPWEAFNHLELHELAQYGII
# partner: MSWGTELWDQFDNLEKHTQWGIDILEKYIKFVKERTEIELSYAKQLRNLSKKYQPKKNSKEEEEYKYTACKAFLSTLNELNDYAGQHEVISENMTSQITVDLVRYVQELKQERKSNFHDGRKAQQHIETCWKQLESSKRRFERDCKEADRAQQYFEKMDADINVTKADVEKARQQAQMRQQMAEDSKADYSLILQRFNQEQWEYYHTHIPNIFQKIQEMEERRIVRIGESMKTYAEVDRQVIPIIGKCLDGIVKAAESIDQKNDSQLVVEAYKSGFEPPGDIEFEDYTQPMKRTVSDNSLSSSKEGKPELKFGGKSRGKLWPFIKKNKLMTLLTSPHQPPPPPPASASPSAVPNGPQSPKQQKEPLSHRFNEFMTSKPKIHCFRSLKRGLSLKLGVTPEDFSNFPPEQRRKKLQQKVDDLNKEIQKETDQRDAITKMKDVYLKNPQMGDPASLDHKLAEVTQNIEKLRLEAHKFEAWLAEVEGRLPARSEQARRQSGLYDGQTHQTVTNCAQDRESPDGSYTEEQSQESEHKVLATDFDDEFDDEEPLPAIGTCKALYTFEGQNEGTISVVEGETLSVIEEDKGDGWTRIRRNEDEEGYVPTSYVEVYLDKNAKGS
# B2: Retinal rod rhodopsin-sensitive cGMP 3',5'-cyclic phosphodiesterase subunit gamma (Homo sapiens), P18545 (parent)
# chain: B1 chain
# How the values were obtained:
# fnbp1_rat Fnbp1, Q8R511 = variants of: B1; conditions: with fnbp1_rat Fnbp1, Q8R511
# [1] = variants of: B2; conditions: with pacn2_rat Pacsin2, Q9QY17
# grb2_rat Grb2, P62994 = variants of: B2; conditions: with grb2_rat Grb2, P62994
# src_rat Src, Q9WUD9 = variants of: B2; conditions: with src_rat Src
Variant,"effect of a mutation on the interaction (fnbp1_rat Fnbp1, Q8R511)",effect of a mutation on the interaction [1],"effect of a mutation on the interaction (grb2_rat Grb2, P62994)","effect of a mutation on the interaction (src_rat Src, Q9WUD9)"
MNLEPPKAEFRSATRVAGGAVTPRKGPPKFKQRQTRQFKSKPPKKGVQGFGDDIPGMEGLGTDITVICPWEAFNHLELHELAQYGII,disrupting interaction,,,
MNLEPPKAEFRSATRVAGGPVTARKGPPKFKQRQTRQFKSKPPKKGVQGFGDDIPGMEGLGTDITVICPWEAFNHLELHELAQYGII,disrupting interaction,,,
MNLEPPKAEFRSATRVAGGAVTPRKGPPKFKQRQTRQFKSKPPKKGVQGFGDDIPGMEGLGTDITVICPWEAFNHLELHELAQYGII,,decreasing interaction,decreasing interaction,disrupting interaction
MNLEPPKAEFRSATRVAGGPVTARKGPPKFKQRQTRQFKSKPPKKGVQGFGDDIPGMEGLGTDITVICPWEAFNHLELHELAQYGII,,decreasing interaction,decreasing interaction,disrupting interaction
